Consider 14 variants from the supplement of paper PMC7125110.

± gives the standard error. For part of these data: This sample holds only a part of the variants without activity.

B1: glmS ribozyme (parent)
chain: AUAAAAGCGCCAGAACUACAGAAAUGUAGUUGACGAGGAGGAGGUUUAUCGAAUUUUCGGCGGAUGCCUCCAAA

Common to all, as to settings: with glucosamine-6-phosphate
In data set [1] the parent is B1. Description: kcat; higher = faster cleavage; RNA array. In outline:
(§1)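 Tiles of sequenced MiSeq chips were imaged over ~14 h at 37 °C. On them, barcoded ribozyme variants had been transcribed in situ by E. coli RNA polymerase and were tracked via a hybridised Cy3 probe while glucosamine-6-phosphate (40 μM to 10 mM) in HEPES/KCl/Mg(OAc)2 buffer flowed in. Per-tile medians, normalised to baseline and to non-cleaving reference variants, were fit to one- or two-exponential decays for kobs, and weighted Michaelis–Menten fits gave kcat and KM.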

Variants of B1 are the subject of data set [2]. The data set can be described thus: KM; higher = weaker cofactor use; RNA array. The essentials:
as §1

The variants in data set [3] derive from B1. Description: self-cleavage kobs at 40 uM GlcN6P; higher = faster cleavage; RNA array. The essentials: as §1
Data set [4] covers variants of B1. The data set can be described thus: self-cleavage kobs at 160 uM GlcN6P; higher = faster cleavage; RNA array. The essentials:
as §1

In data set [5] the parent is B1. Description: self-cleavage kobs at 640 uM GlcN6P; higher = faster cleavage; RNA array. In outline:
as §1

Data set [6] covers variants of B1. Description: self-cleavage kobs at 2500 uM GlcN6P; higher = faster cleavage; RNA array. In outline:
as §1

Data set [7] covers variants of B1. Description: self-cleavage kobs at 10000 uM GlcN6P; higher = faster cleavage; RNA array. In outline:
as §1

As for A39U C70A, in the data set with glucosamine-6-phosphate [1], the kcat worked out at 0.000394 ± 9.4e-05 s⁻¹. The KM with glucosamine-6-phosphate [2] was determined as 558 ± 250 µM. Moreover, the “self-cleavage kobs at 40 uM GlcN6P” value with glucosamine-6-phosphate [3] is 5.15e-05 ± 9.3e-06 s⁻¹. Besides, the “self-cleavage kobs at 160 uM GlcN6P” value in the data set with glucosamine-6-phosphate [4] stood at 7.96e-05 ± 1.2e-05 s⁻¹. Moreover, in the data set with glucosamine-6-phosphate [5], the “self-cleavage kobs at 640 uM GlcN6P” value came out at 0.000187 ± 2.3e-05 s⁻¹. Besides, the “self-cleavage kobs at 2500 uM GlcN6P” value in the data set with glucosamine-6-phosphate [6] came out at 0.000403 ± 6.9e-05 s⁻¹. In the data set with glucosamine-6-phosphate [7], the “self-cleavage kobs at 10000 uM GlcN6P” value came to 0.000382 ± 5.4e-05 s⁻¹.

Consider U47C U54C, for which, in the data set with glucosamine-6-phosphate [1], the kcat was 0.00359 ± 0.00063 s⁻¹. Besides, the KM with glucosamine-6-phosphate [2] was 1240 ± 310 µM. In addition, the “self-cleavage kobs at 40 uM GlcN6P” value with glucosamine-6-phosphate [3] was 9.72e-05 ± 1.5e-05 s⁻¹. Further, in the data set with glucosamine-6-phosphate [4], the “self-cleavage kobs at 160 uM GlcN6P” value stood at 0.000434 ± 7.2e-05 s⁻¹. Moreover, the “self-cleavage kobs at 640 uM GlcN6P” value with glucosamine-6-phosphate [5] turned out to be 0.00141 ± 0.00017 s⁻¹. Further, the “self-cleavage kobs at 2500 uM GlcN6P” value with glucosamine-6-phosphate [6] came out at 0.00299 ± 0.00053 s⁻¹. Also, in the data set with glucosamine-6-phosphate [7], the “self-cleavage kobs at 10000 uM GlcN6P” value was found to be 0.00275 ± 0.00046 s⁻¹.

On to A6G U65G, for which, in the data set with glucosamine-6-phosphate [1], the turnover number (kcat) turned out to be 0.000323 ± 2.1e-05 s⁻¹. For the same variant, in the data set with glucosamine-6-phosphate [2], the KM worked out at 3580 ± 500 µM. Besides, in the data set with glucosamine-6-phosphate [5], the “self-cleavage kobs at 640 uM GlcN6P” value amounted to 4.35e-05 ± 1e-05 s⁻¹. Moreover, the “self-cleavage kobs at 2500 uM GlcN6P” value in the data set with glucosamine-6-phosphate [6] was found to be 0.000141 ± 1.6e-05 s⁻¹. Besides, the “self-cleavage kobs at 10000 uM GlcN6P” value in the data set with glucosamine-6-phosphate [7] was 0.000234 ± 2e-05 s⁻¹.

Turning to U55C C67U, in the data set with glucosamine-6-phosphate [1], the kcat worked out at 0.000234 ± 1.4e-05 s⁻¹. In addition, the KM in the data set with glucosamine-6-phosphate [2] is 499 ± 120 µM. Also, the “self-cleavage kobs at 640 uM GlcN6P” value with glucosamine-6-phosphate [5] was 0.000134 ± 2.5e-05 s⁻¹. The “self-cleavage kobs at 2500 uM GlcN6P” value with glucosamine-6-phosphate [6] was found to be 0.000173 ± 4.2e-05 s⁻¹. Also, in the data set with glucosamine-6-phosphate [7], the “self-cleavage kobs at 10000 uM GlcN6P” value stood at 0.000231 ± 3e-05 s⁻¹.

As for U31C U47G, the kcat with glucosamine-6-phosphate [1] is 0.000887 ± 0.00023 s⁻¹. The KM with glucosamine-6-phosphate [2] amounted to 1440 ± 640 µM. Besides, in the data set with glucosamine-6-phosphate [3], the “self-cleavage kobs at 40 uM GlcN6P” value was 3.36e-05 ± 9.1e-06 s⁻¹. Besides, the “self-cleavage kobs at 160 uM GlcN6P” value with glucosamine-6-phosphate [4] was 8.85e-05 ± 1.5e-05 s⁻¹. In addition, the “self-cleavage kobs at 640 uM GlcN6P” value in the data set with glucosamine-6-phosphate [5] was determined as 0.000292 ± 4.5e-05 s⁻¹. Further, the “self-cleavage kobs at 2500 uM GlcN6P” value with glucosamine-6-phosphate [6] was determined as 0.000426 ± 7e-05 s⁻¹. In the data set with glucosamine-6-phosphate [7], the “self-cleavage kobs at 10000 uM GlcN6P” value was 0.00102 ± 0.00013 s⁻¹.

Take G13A U31A: the kcat with glucosamine-6-phosphate [1] is 0.00146 ± 4.2e-05 s⁻¹. For the same variant, the Michaelis-Menten constant (KM) with glucosamine-6-phosphate [2] amounted to 9800 ± 410 µM. In addition, the “self-cleavage kobs at 640 uM GlcN6P” value in the data set with glucosamine-6-phosphate [5] was found to be 9.06e-05 ± 1.9e-05 s⁻¹. Moreover, the “self-cleavage kobs at 2500 uM GlcN6P” value with glucosamine-6-phosphate [6] is 0.000292 ± 6.9e-05 s⁻¹. The “self-cleavage kobs at 10000 uM GlcN6P” value with glucosamine-6-phosphate [7] worked out at 0.00074 ± 0.0001 s⁻¹.

As to A15U U57G, the kcat with glucosamine-6-phosphate [1] was 1.7e-05 ± 6.8e-06 s⁻¹.

With A14C U45A, the turnover number (kcat) in the data set with glucosamine-6-phosphate [1] came to 0.00955 ± 0.0035 s⁻¹. The “self-cleavage kobs at 40 uM GlcN6P” value with glucosamine-6-phosphate [3] came to 0.000245 ± 3.9e-05 s⁻¹. In addition, the “self-cleavage kobs at 160 uM GlcN6P” value in the data set with glucosamine-6-phosphate [4] was 0.000909 ± 0.00039 s⁻¹. Besides, the “self-cleavage kobs at 640 uM GlcN6P” value in the data set with glucosamine-6-phosphate [5] was 0.00207 ± 0.00049 s⁻¹. For the same variant, the “self-cleavage kobs at 2500 uM GlcN6P” value in the data set with glucosamine-6-phosphate [6] amounted to 0.00469 ± 0.00097 s⁻¹. In the data set with glucosamine-6-phosphate [7], the “self-cleavage kobs at 10000 uM GlcN6P” value came to 0.0131 ± 0.0028 s⁻¹.

On to A52U U55C, for which the catalytic constant (kcat) with glucosamine-6-phosphate [1] came out at 0.000619 ± 0.00011 s⁻¹. The “self-cleavage kobs at 2500 uM GlcN6P” value in the data set with glucosamine-6-phosphate [6] worked out at 0.000125 ± 3.2e-05 s⁻¹. Also, the “self-cleavage kobs at 10000 uM GlcN6P” value with glucosamine-6-phosphate [7] was 0.000288 ± 4.2e-05 s⁻¹.

A48G U54A: the kcat with glucosamine-6-phosphate [1] worked out at 0.000153 ± 2.2e-05 s⁻¹. In the data set with glucosamine-6-phosphate [2], the KM amounted to 1650 ± 590 µM. For the same variant, in the data set with glucosamine-6-phosphate [5], the “self-cleavage kobs at 640 uM GlcN6P” value came to 3.77e-05 ± 9.3e-06 s⁻¹. Further, the “self-cleavage kobs at 2500 uM GlcN6P” value with glucosamine-6-phosphate [6] amounted to 0.000115 ± 1.8e-05 s⁻¹. Further, the “self-cleavage kobs at 10000 uM GlcN6P” value with glucosamine-6-phosphate [7] stood at 0.000123 ± 1.8e-05 s⁻¹.

For U57G C68U, the kcat with glucosamine-6-phosphate [1] is 3.41e-05 ± 1.5e-05 s⁻¹. In addition, the “self-cleavage kobs at 40 uM GlcN6P” value with glucosamine-6-phosphate [3] was below 1e-05 s⁻¹. The “self-cleavage kobs at 640 uM GlcN6P” value with glucosamine-6-phosphate [5] worked out at 3.46e-05 ± 1.4e-05 s⁻¹. The “self-cleavage kobs at 2500 uM GlcN6P” value with glucosamine-6-phosphate [6] turned out to be 6.22e-05 ± 1.2e-05 s⁻¹. Further, the “self-cleavage kobs at 10000 uM GlcN6P” value in the data set with glucosamine-6-phosphate [7] was found to be 1.92e-05 ± 8.6e-06 s⁻¹.

For A12C A39C, in the data set with glucosamine-6-phosphate [1], the kcat was found to be 0.000611 ± 4.3e-05 s⁻¹. Besides, in the data set with glucosamine-6-phosphate [2], the KM is 2060 ± 260 µM. The “self-cleavage kobs at 40 uM GlcN6P” value with glucosamine-6-phosphate [3] came to 1.91e-05 ± 9.4e-06 s⁻¹. The “self-cleavage kobs at 160 uM GlcN6P” value with glucosamine-6-phosphate [4] was 3.75e-05 ± 7.9e-06 s⁻¹. In the data set with glucosamine-6-phosphate [5], the “self-cleavage kobs at 640 uM GlcN6P” value was 0.000149 ± 1.2e-05 s⁻¹. Moreover, in the data set with glucosamine-6-phosphate [6], the “self-cleavage kobs at 2500 uM GlcN6P” value worked out at 0.000343 ± 3e-05 s⁻¹. For the same variant, in the data set with glucosamine-6-phosphate [7], the “self-cleavage kobs at 10000 uM GlcN6P” value worked out at 0.000499 ± 4.2e-05 s⁻¹.

Consider U30C A39G, for which the kcat with glucosamine-6-phosphate [1] turned out to be 0.00121 ± 0.00015 s⁻¹. The KM with glucosamine-6-phosphate [2] amounted to 3930 ± 730 µM. Further, the “self-cleavage kobs at 160 uM GlcN6P” value in the data set with glucosamine-6-phosphate [4] came to 5.74e-05 ± 1.6e-05 s⁻¹. Also, the “self-cleavage kobs at 640 uM GlcN6P” value in the data set with glucosamine-6-phosphate [5] turned out to be 0.00016 ± 2.7e-05 s⁻¹. Besides, the “self-cleavage kobs at 2500 uM GlcN6P” value in the data set with glucosamine-6-phosphate [6] was 0.00046 ± 6.8e-05 s⁻¹. In the data set with glucosamine-6-phosphate [7], the “self-cleavage kobs at 10000 uM GlcN6P” value stood at 0.000888 ± 0.00014 s⁻¹.

As for C50G C61G, the kcat in the data set with glucosamine-6-phosphate [1] turned out to be 0.000119 ± 1.7e-05 s⁻¹. Moreover, the “self-cleavage kobs at 40 uM GlcN6P” value with glucosamine-6-phosphate [3] came out at 8.54e-05 ± 1.1e-05 s⁻¹. Moreover, in the data set with glucosamine-6-phosphate [4], the “self-cleavage kobs at 160 uM GlcN6P” value was found to be 0.000156 ± 1.9e-05 s⁻¹. The “self-cleavage kobs at 640 uM GlcN6P” value with glucosamine-6-phosphate [5] worked out at 0.000115 ± 1.6e-05 s⁻¹. Also, the “self-cleavage kobs at 2500 uM GlcN6P” value in the data set with glucosamine-6-phosphate [6] turned out to be 0.000161 ± 2e-05 s⁻¹. Besides, in the data set with glucosamine-6-phosphate [7], the “self-cleavage kobs at 10000 uM GlcN6P” value was found to be 9.9e-05 ± 1e-05 s⁻¹.

As usually defined, the kcat is the number of substrate molecules converted per active site and unit of time at saturation. What is called KM is the concentration of substrate that gives half-maximal velocity.
